Data published in article PMC5707411.

Target: full-length RSV F A2 DS-Cav1 K201N (A-chimera construct) (respiratory syncytial virus subtype A, strain A2)

B1: 5C4 IgG (antibody, V domains shown)
VH: EVQLQQSGAELVKPGASVKLSCTASGFNIKDTFFHWVKQRPEQGLEWIGRIDPADGHTKYDPKFQGKATITADTSSNTAFLQLSSLTSVDTAVYYCATTITAVVPTPYNAMDYWGQGTSVTVSS
VL: DIVLTQSPASLAVSLGQRTTISCRASESVDSFDNSFIHWYQQKPGQPPKLLIFLASSLESGVPARFSGSGSRTDFTLTIDPVEADDAATYYCQQSNEDPFTFGSGTKLEIK
B1 showed an EC50 of 5C4 neutralisation of mKate-RSV A2 K201N-mutated virus on HEp-2 cells (viral F without DS-Cav1; antibody format not given) of 0.41 µg/mL.
